Reference: the supplement of paper PMC12042874
± gives the uncertainty stated by the source.

Experiment: amyloid nucleation score (Sup35N fusion, yeast selection) (log enrichment); library NNK3; higher = more nucleation; inactive = no reads after selection
In short: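 In psi-negative yeast, Sup35N fusions carrying peptides of 20 random codons were induced with 100 μM copper sulfate for 24 hours. The cells then grew 7 days at 30°C on medium lacking adenine and uracil, and plasmid inserts from input and output were Illumina-sequenced, excluding sequences with under 100 input reads. Nucleation score is the DiMSum log enrichment of output over input reads, centred on the mode score of non-aggregating sequences.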

**Q.** For TSYVLWLSRLYFVANPSDYS, which amyloid nucleation score is on record?
**A.** inactive

**Q.** For TSYYIYTVSFDGCCSNLRTV, which amyloid nucleation score is on record?
**A.** 1.56 ± 0.13

**Q.** Which amyloid nucleation score does the source give for TTCWVYMLVILA here?
**A.** 1.38 ± 0.077

**Q.** Which amyloid nucleation score does the source give for TTDLKC here?
**A.** inactive

**Q.** For TTEEL, which amyloid nucleation score is on record?
**A.** inactive

**Q.** Which amyloid nucleation score does the source give for TTGLFE here?
**A.** inactive

**Q.** Which amyloid nucleation score does the source give for TTHVILCLCNL here?
**A.** 3.07 ± 0.073

**Q.** With TTLMMGTEPGLDTRLSSLCY as the substance, how does the amyloid nucleation score read?
**A.** inactive

**Q.** For TTMRCEIKSLYWIISQCWLD, which amyloid nucleation score is on record?
**A.** inactive

**Q.** With TTSCEVAWFEICLSSLNFTM as the substance, how does the amyloid nucleation score read?
**A.** inactive

**Q.** With TTSLKTHVLPRNVFRFEPYM as the substance, how does the amyloid nucleation score read?
**A.** inactive

**Q.** Which amyloid nucleation score does the source give for TTTCHLRIKSNMRLSQEWLG here?
**A.** 1.17 ± 0.12

**Q.** For TTVDDNFVHRRPM, which amyloid nucleation score is on record?
**A.** inactive

**Q.** For TVACNVFYQLCVE, which amyloid nucleation score is on record?
**A.** inactive

**Q.** For TVANTNRTALNLMLEMGLGL, which amyloid nucleation score is on record?
**A.** inactive

**Q.** Which amyloid nucleation score does the source give for TVFMYRRVFSIRWG here?
**A.** inactive

**Q.** For TVHSHKWCSLVGGPIRISWT, which amyloid nucleation score is on record?
**A.** inactive

**Q.** With TVICISHTFSGHCLSSYEVW as the substance, how does the amyloid nucleation score read?
**A.** inactive

**Q.** For TVIMNLYAPP, which amyloid nucleation score is on record?
**A.** 2.51 ± 0.053

**Q.** Which amyloid nucleation score does the source give for TVNLDQMYYMVFCVFRSMHD here?
**A.** 0.498 ± 0.43

**Q.** For TVNQKPY, which amyloid nucleation score is on record?
**A.** inactive

**Q.** With TVNYYRQNSIIMFESYNECC as the substance, how does the amyloid nucleation score read?
**A.** 0.579 ± 0.17

**Q.** For TVRASFGYNLRNWCSTVVVE, which amyloid nucleation score is on record?
**A.** inactive

**Q.** Which amyloid nucleation score does the source give for TVRYVVSASTWHMSLQSPTL here?
**A.** 1.33 ± 0.11

**Q.** With TVRYVYTCFINFQTLVHRRM as the substance, how does the amyloid nucleation score read?
**A.** -0.784 ± 0.8

**Q.** For TVSGQLIT, which amyloid nucleation score is on record?
**A.** inactive

**Q.** With TVSIKSAHATRTQVVPNMSF as the substance, how does the amyloid nucleation score read?
**A.** inactive

**Q.** For TVTGIMSKYANTSFRN, which amyloid nucleation score is on record?
**A.** inactive

**Q.** With TVTVPG as the substance, how does the amyloid nucleation score read?
**A.** inactive

**Q.** With TVWELM as the substance, how does the amyloid nucleation score read?
**A.** -0.068 ± 0.33

**Q.** Which amyloid nucleation score does the source give for TVYFNYRVWHTMARKQKLSS here?
**A.** inactive

**Q.** For TWATVTMVWCLNVNSVDTGL, which amyloid nucleation score is on record?
**A.** 2.26 ± 0.094

**Q.** With TWILFFVN as the substance, how does the amyloid nucleation score read?
**A.** 1.78 ± 0.062

**Q.** For TWKHFFIALLRRSNY, which amyloid nucleation score is on record?
**A.** inactive

**Q.** With TWLMFIFNSRYL as the substance, how does the amyloid nucleation score read?
**A.** 1.51 ± 0.074

**Q.** Which amyloid nucleation score does the source give for TWLSFIRLNMMPINTSTCYP here?
**A.** inactive

**Q.** Which amyloid nucleation score does the source give for TWRYRKMYYRSDVNHCLFEV here?
**A.** inactive

**Q.** Which amyloid nucleation score does the source give for TWTDCERRLDIVKEMLNYIQ here?
**A.** inactive

**Q.** For TYFYAFALTVPYSWHSEDRM, which amyloid nucleation score is on record?
**A.** 2.04 ± 0.054

**Q.** With TYGTCVGQK as the substance, how does the amyloid nucleation score read?
**A.** inactive

**Q.** For TYHSCY, which amyloid nucleation score is on record?
**A.** inactive

**Q.** Which amyloid nucleation score does the source give for TYIVAEANVRSVGDEQSMMN here?
**A.** inactive

**Q.** For TYKVFL, which amyloid nucleation score is on record?
**A.** inactive

**Q.** With TYLLFGSTLGLSQWVYLDVE as the substance, how does the amyloid nucleation score read?
**A.** inactive

**Q.** Which amyloid nucleation score does the source give for TYLLNGTILLNPCKLC here?
**A.** inactive

**Q.** Which amyloid nucleation score does the source give for TYLVNSDMMGDRIFGACRDV here?
**A.** inactive

**Q.** Which amyloid nucleation score does the source give for TYMSNNTMGEFFLNLRVNLY here?
**A.** 2.44 ± 0.068

**Q.** With TYTSVGETS as the substance, how does the amyloid nucleation score read?
**A.** inactive

**Q.** With TYTYIGIKAFCDLYRSKMGV as the substance, how does the amyloid nucleation score read?
**A.** inactive

**Q.** With TYWVGWML as the substance, how does the amyloid nucleation score read?
**A.** inactive

**Q.** Which amyloid nucleation score does the source give for TYYGCYLVGR here?
**A.** 0.01 ± 0.66

**Q.** With VAAMYGILMMLMELVWSDAR as the substance, how does the amyloid nucleation score read?
**A.** inactive

**Q.** Which amyloid nucleation score does the source give for VAFYVTHGAIVYFSMGCAGI here?
**A.** 1.63 ± 0.11

**Q.** Which amyloid nucleation score does the source give for VAIIAYQWSIPSMAGPVNRR here?
**A.** 0.652 ± 0.28

**Q.** Which amyloid nucleation score does the source give for VALLTYFWYGPIKGVAS here?
**A.** inactive

**Q.** For VALWGSWRRPWDAVAFDRTG, which amyloid nucleation score is on record?
**A.** inactive

**Q.** Which amyloid nucleation score does the source give for VANIFVVISIVGVDTRLFIV here?
**A.** 0.519 ± 0.23

**Q.** With VANYGQVQHWYRGYVEDEGL as the substance, how does the amyloid nucleation score read?
**A.** inactive

**Q.** Which amyloid nucleation score does the source give for VAPLAILDRKSKSLVGNNMA here?
**A.** inactive

**Q.** With VAQRELWEEAIRCRYEH as the substance, how does the amyloid nucleation score read?
**A.** inactive

**Q.** For VARELGLCYVWAGSRGVSRV, which amyloid nucleation score is on record?
**A.** -0.323 ± 1.8

**Q.** Which amyloid nucleation score does the source give for VAWRLFQNVWVHTGSDGYTV here?
**A.** -0.601 ± 1.1

**Q.** With VAYNRGSQCCR as the substance, how does the amyloid nucleation score read?
**A.** inactive

**Q.** For VCADIVLPQMDLPGSSGREK, which amyloid nucleation score is on record?
**A.** inactive

**Q.** For VCANLSWPFLSNTLLFVCLG, which amyloid nucleation score is on record?
**A.** inactive

**Q.** With VCAVSFGRWYG as the substance, how does the amyloid nucleation score read?
**A.** inactive

**Q.** With VCCSYY as the substance, how does the amyloid nucleation score read?
**A.** 1.32 ± 0.11

**Q.** Which amyloid nucleation score does the source give for VCFRNAFFHCSQMRTCNRVI here?
**A.** 0.262 ± 0.74

**Q.** With VCGASGCKWAVTNSRHDGNG as the substance, how does the amyloid nucleation score read?
**A.** inactive

**Q.** Which amyloid nucleation score does the source give for VCNQS here?
**A.** inactive

**Q.** Which amyloid nucleation score does the source give for VCRRTGSKITFGQWKVYFSS here?
**A.** inactive

**Q.** With VCSFDMRDLQKTE as the substance, how does the amyloid nucleation score read?
**A.** inactive

**Q.** For VCTPNRCLSTLSR, which amyloid nucleation score is on record?
**A.** inactive

**Q.** Which amyloid nucleation score does the source give for VCVRKLELGDCLKCG here?
**A.** inactive

**Q.** For VCVRYFGDIFYVLYTFVMRA, which amyloid nucleation score is on record?
**A.** 0.051 ± 0.46

**Q.** With VCWSHKCRVDVS as the substance, how does the amyloid nucleation score read?
**A.** inactive

**Q.** With VCYKPFTSVYLVCTYHLFKS as the substance, how does the amyloid nucleation score read?
**A.** inactive

**Q.** With VDEFFGRGVHWLTVRLGLGM as the substance, how does the amyloid nucleation score read?
**A.** inactive

**Q.** For VDLYV, which amyloid nucleation score is on record?
**A.** inactive

**Q.** For VDNIVVVCCFKDNCLSKG, which amyloid nucleation score is on record?
**A.** 1.85 ± 0.09

**Q.** With VDNNHYQRKSKGFGVAGLIR as the substance, how does the amyloid nucleation score read?
**A.** inactive
